Tests used:
Experiment in all cases: fluorescence polarisation; fluorescence anisotropy; 2 µL additions of 40-90 µM human EFL1 titrated into 300 µL of 0.1 µM Lumio Green-labelled human SBDS-FlAsH construct; 25 °C; 50 mM Tris-HCl pH 8, 300 mM NaCl, 5 mM β-mercaptoethanol; fitted to a single-site or a two different binding sites model
Settings in all cases: both partners purified
[1] = biological target: T1, human SBDS wild type with C-terminal FlAsH tag, labelled with Lumio Green (human, UniProt Q9Y3A5 1-250, Lumio Green dye (4',5'-bis(1,3,2-dithioarsolan-2-yl) fluorescein) on the C-terminal FlAsH tag)
T1 construct: human SBDS, wild type, called the full-length protein; also called SBDS-FlAsH; Shwachman-Bodian-Diamond Syndrome protein; source: E. coli C41 (pRSET plasmid), purified by conventional chromatographic techniques; not shown: FlAsH tag (Cys-Cys-Pro-Gly-Cys-Cys), C-terminal, kept
T1 sequence (looked up): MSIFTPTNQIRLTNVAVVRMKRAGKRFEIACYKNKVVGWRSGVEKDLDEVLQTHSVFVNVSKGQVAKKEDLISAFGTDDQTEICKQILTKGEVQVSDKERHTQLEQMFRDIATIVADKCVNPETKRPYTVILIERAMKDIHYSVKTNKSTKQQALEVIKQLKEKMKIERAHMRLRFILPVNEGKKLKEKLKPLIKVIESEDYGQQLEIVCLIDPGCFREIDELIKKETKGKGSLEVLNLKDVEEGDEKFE

[2] = biological target: T2, human SBDS R19Q with C-terminal FlAsH tag, labelled with Lumio Green (human, UniProt Q9Y3A5 1-250, R19Q, Lumio Green dye (4',5'-bis(1,3,2-dithioarsolan-2-yl) fluorescein) on the C-terminal FlAsH tag)
T2 construct: human SBDS, SDS disease surface missense variant R19Q (domain 1), in the three-domain protein; Missense variant found in patients; source: E. coli C41 (pRSET plasmid), purified by conventional chromatographic techniques; not shown: FlAsH tag (Cys-Cys-Pro-Gly-Cys-Cys), C-terminal, kept
T2 sequence (looked up): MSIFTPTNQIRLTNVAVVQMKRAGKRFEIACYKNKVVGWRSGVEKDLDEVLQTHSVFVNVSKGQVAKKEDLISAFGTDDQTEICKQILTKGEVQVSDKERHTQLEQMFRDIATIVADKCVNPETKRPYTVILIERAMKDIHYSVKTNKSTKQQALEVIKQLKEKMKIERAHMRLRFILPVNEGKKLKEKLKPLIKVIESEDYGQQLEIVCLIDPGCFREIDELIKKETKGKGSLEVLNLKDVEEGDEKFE

[3] = biological target: T3, human SBDS I167T with C-terminal FlAsH tag, labelled with Lumio Green (human, UniProt Q9Y3A5 1-250, I167T, Lumio Green dye (4',5'-bis(1,3,2-dithioarsolan-2-yl) fluorescein) on the C-terminal FlAsH tag)
T3 construct: human SBDS, SDS disease surface missense variant I167T (domain 2), in the three-domain protein; Missense variant found in patients; source: E. coli C41 (pRSET plasmid), purified by conventional chromatographic techniques; not shown: FlAsH tag (Cys-Cys-Pro-Gly-Cys-Cys), C-terminal, kept
T3 sequence (looked up): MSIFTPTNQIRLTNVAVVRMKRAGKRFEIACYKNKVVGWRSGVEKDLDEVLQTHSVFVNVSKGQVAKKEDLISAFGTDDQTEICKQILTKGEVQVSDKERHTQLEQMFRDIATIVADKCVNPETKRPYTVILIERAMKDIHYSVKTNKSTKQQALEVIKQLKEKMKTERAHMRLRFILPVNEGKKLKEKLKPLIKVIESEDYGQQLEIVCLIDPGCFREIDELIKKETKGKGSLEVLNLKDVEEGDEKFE

B1: human Elongation Factor Like-1 (EFL1) (enzyme)
chain: MVLNSLDKMIQLQKNTANIRNICVLAHVDHGKTTLADCLISSNGIISSRLAGKLRYMDSREDEQIRGITMKSSAISLHYATGNEEYLINLIDSPGHVDFSSEVSTAVRICDGCIIVVDAVEGVCPQTQAVLRQAWLENIRPVLVINKIDRLIVELKFTPQEAYSHLKNILEQINALTGTLFTSKVLEERAERETESQVNPNSEQGEQVYDWSTGLEDTDDSHLYFSPEQGNVVFTSAIDGWGFGIEHFARIYSQKIGIKKEVLMKTLWGDYYINMKAKKIMKGDQAKGKKPLFVQLILENIWSLYDAVLKKDKDKIDKIVTSLGLKIGAREARHSDPKVQINAICSQWLPISHAVLAMVCQKLPSPLDITAERVERLMCTGSQTFDSFPPETQALKAAFMKCGSEDTAPVIIFVSKMFAVDAKALPQNKPRPLTQEEIAQRRERARQRHAEKLAAAQGQAPLEPTQDGSAIETCPKGEEPRGDEQQVESMTPKPVLQEENNQESFIAFARVFSGVARRGKKIFVLGPKYSPLEFLRRVPLGFSAPPDGLPQVPHMAYCALENLYLLMGRELEYLEEVPPGNVLGIGGLQDFVLKSATLCSLPSCPPFIPLNFEATPIVRVAVEPKHPSEMPQLVKGMKLLNQADPCVQILIQETGEHVLVTAGEVHLQRCLDDLKERFAKIHISVSEPIIPFRETITKPPKVDMVNEEIGKQQKVAVIHQMKEDQSKIPEGIQVDSDGLITITTPNKLATLSVRAMPLPEEVTQILEENSDLIRSMEQLTSSLNEGENTHMIHQKTQEKIWEFKGKLEQHLTGRRWRNIVDQIWSFGPRKCGPNILVNKSEDFQNSVWTGPADKASKEASRYRDLGNSIVSGFQLATLSGPMCEEPLMGVCFVLEKWDLSKFEEQGASDLAKEGQEENETCSGGNENQELQDGCSEAFEKRTSQKGESPLTDCYGPFSGQLIATMKEACRYALQVKPQRLMAAMYTCDIMATGDVLGRVYAVLSKREGRVLQEEMKEGTDMFIIKAVLPVAESFGFADEIRKRTSGLASPQLVFSHWEIIPSDPFWVPTTEEEYLHFGEKADSENQARKYMNAVRKRKGLYVEEKIVEHAEKQRTLSKNK
notes: human EFL1, GTPase, said to comprise 1120 residues; the expressed protein is fused to a TEV recognition site and a hexahistidine tag at the C-terminus; also called human EFL1; GTPase Elongation Factor Like-1; source: S. cerevisiae BCY123 (pRS426 backbone, GAL1/10 promoter), purified
Kd1 (first binding site, two different binding sites model) [1]: 5.4 ± 1 µM | Kd2 (second binding site, two different binding sites model) [1]: 0.4 ± 0.04 µM | Kd1 (first binding site, two different binding sites model) [2]: 4.2 ± 0.5 µM | Kd2 (second binding site, two different binding sites model) [2]: 5.2 ± 0.3 µM | Kd1 (first binding site, two different binding sites model) [3]: 10 ± 3 µM | Kd2 (second binding site, two different binding sites model) [3]: 1.4 ± 0.2 µM

Reference: publication PMC6321010, “Interaction of the GTPase Elongation Factor Like-1 with the Shwachman-Diamond Syndrome Protein and Its Missense Mutations” (International Journal of Molecular Sciences, 2018)
